Measurements taken from the supplement of paper PMC10567573.

B1: C2orf65 (parent)
chain: QLDWDELETNQQHFHALCHSLLVS
B2: SETD8 (parent)
chain: GKQAPRKKAQGKTQQNRKLTDFYP

Variants of: B1
Experiment: protein stability index of a GFP-peptide fusion (GPS, HEK-293T) (PSI 1-6); higher = more stable
Conditions: c terminus: a fixed tail appended
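Also: lentivirally expressed fusions sorted by FACS into six bins by GFP to DsRed ratio, PSI derived from sequencing read proportions per bin multiplied by bin number.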

First: QLLWDELETNQQHFHALCHSLLVS
Second: QLVWDELETNQQHFHALCHSLLVS
The protein stability index of the first is lower: 1.45 for the first, 1.73 for the second.

Going from QLIWDELETNQQHFHALCHSLLVS to QLKWDELETNQQHFHALCHSLLVS, the protein stability index falls from 2.23 to 1.83.

Going from QLQWDELETNQQHFHALCHSLLVS to QLWWDELETNQQHFHALCHSLLVS, the protein stability index rises from 2.1 to 3.03.

Going from QLFWDELETNQQHFHALCHSLLVS to QLPWDELETNQQHFHALCHSLLVS, the protein stability index rises from 1.93 to 2.07.

Compared with QLGWDELETNQQHFHALCHSLLVS, QLHWDELETNQQHFHALCHSLLVS is lower in protein stability index: 2.85 for the first, 1.92 for the second.

QLNWDELETNQQHFHALCHSLLVS gave a protein stability index of 2.01.

Variants of: B2
Experiment: as above
Conditions: c terminus: a fixed tail appended

Compared with GKQAPRKKAQGKTQQNRKLTDFSP, GKQAPRKKAQGKTQQNRKLTDFLP is lower in protein stability index: 4.39 for the first, 3.96 for the second.

Going from GKQAPRKKAQGKTQQNRKLTDFVP to GKQAPRKKAQGKTQQNRKLTDFNP, the protein stability index rises from 4.05 to 4.83.

First: GKQAPRKKAQGKTQQNRKLTDFEP
Second: GKQAPRKKAQGKTQQNRKLTDFTP
The protein stability index of the first is lower: 4.51 for the first, 5.12 for the second.

First: GKQAPRKKAQGKTQQNRKLTDFDP
Second: GKQAPRKKAQGKTQQNRKLTDFCP
The protein stability index of the first is higher: 4.64 for the first, 4.28 for the second.

First: GKQAPRKKAQGKTQQNRKLTDFQP
Second: GKQAPRKKAQGKTQQNRKLTDFPP
The protein stability index of the first is lower: 4.04 for the first, 4.44 for the second.

Going from GKQAPRKKAQGKTQQNRKLTDFHP to GKQAPRKKAQGKTQQNRKLTDFKP, the protein stability index rises from 4.93 to 5.33.

First: GKQAPRKKAQGKTQQNRKLTDFGP
Second: GKQAPRKKAQGKTQQNRKLTDFIP
The protein stability index of the first is higher: 4.34 for the first, 4.07 for the second.

Going from GKQAPRKKAQGKTQQNRKKTDFYP to GKQAPRKKAQGKTQQNRKQTDFYP, the protein stability index falls from 4 to 3.84.

Compared with GKQAPRKKAQGKTQQNRKFTDFYP, GKQAPRKKAQGKTQQNRKWTDFYP is lower in protein stability index: 3.27 for the first, 2.97 for the second.

Compared with GKQAPRKKAQGKTQQNRKGTDFYP, GKQAPRKKAQGKTQQNRKYTDFYP is lower in protein stability index: 3.91 for the first, 3.32 for the second.

Compared with GKQAPRKKAQGKTQQNRKRTDFYP, GKQAPRKKAQGKTQQNRKHTDFYP is lower in protein stability index: 4.33 for the first, 3.77 for the second.

Going from GKQAPRKKAQGKTQQNRKNTDFYP to GKQAPRKKAQGKTQQNRKETDFYP, the protein stability index falls from 4.73 to 4.62.

First: GKQAPRKKAQGKTQQNRKDTDFYP
Second: GKQAPRKKAQGKTQQNRKSTDFYP
The protein stability index of the first is higher: 5.33 for the first, 4.39 for the second.

First: GKQAPRKKAQGKTQQNRKLTVFYP
Second: GKQAPRKKAQGKTQQNRKLTLFYP
The protein stability index of the first is lower: 3.21 for the first, 3.53 for the second.

Going from GKQAPRKKAQGKTQQNRKLTRFYP to GKQAPRKKAQGKTQQNRKLTTFYP, the protein stability index rises from 3.46 to 3.9.

Compared with GKQAPRKKAQGKTQQNRKLTAFYP, GKQAPRKKAQGKTQQNRKLTPFYP is higher in protein stability index: 3.03 for the first, 3.83 for the second.

Compared with GKQAPRKKAQGKTQQNRKLTHFYP, GKQAPRKKAQGKTQQNRKLTIFYP is lower in protein stability index: 3.57 for the first, 3.13 for the second.

First: GKQAPRKKAQGKTQQNRKLTNFYP
Second: GKQAPRKKAQGKTQQNRKLTFFYP
The protein stability index of the first is higher: 3.24 for the first, 2.59 for the second.

First: GKQAPRKKAQGKTQQNRKLTEFYP
Second: GKQAPRKKAQGKTQQNRKLTMFYP
The protein stability index of the first is lower: 1.79 for the first, 3.46 for the second.

Compared with GKQAPRKKAQGKTQQNRKLTYFYP, GKQAPRKKAQGKTQQNRKLTCFYP is higher in protein stability index: 2.97 for the first, 4.41 for the second.

First: GKQAPRKKAQGKTQQNRKLTKFYP
Second: GKQAPRKKAQGKTQQNRKLTDTYP
The protein stability index of the first is lower: 3.91 for the first, 4.57 for the second.

First: GKQAPRKKAQGKTQQNRKLTDPYP
Second: GKQAPRKKAQGKTQQNRKLTDNYP
The protein stability index of the first is higher: 4.98 for the first, 4.77 for the second.

First: GKQAPRKKAQGKTQQNRKLTDGYP
Second: GKQAPRKKAQGKTQQNRKLTDLYP
The protein stability index of the first is higher: 4.75 for the first, 4.51 for the second.

Going from GKQAPRKKAQGKTQQNRKLTDAYP to GKQAPRKKAQGKTQQNRKLTDIYP, the protein stability index falls from 4.61 to 4.13.

Going from GKQAPRKKAQGKTQQNRKLTDMYP to GKQAPRKKAQGKTQQNRKLTDRYP, the protein stability index falls from 4.7 to 3.6.

Going from GKQAPRKKAQGKTQQNRKLTDQYP to GKQAPRKKAQGKTQQNRKLTDSYP, the protein stability index rises from 4.17 to 4.69.

Going from GKQAPRKKAQGKTQQNRKLTDEYP to GKQAPRKKAQGKTQQNRKLTDKYP, the protein stability index rises from 4.61 to 4.97.

Compared with GKQAPRKKAQGKTQQNRKLTDDYP, GKQAPRKKAQGKTQQNRKLTDHYP is higher in protein stability index: 3.15 for the first, 4.13 for the second.

Going from GKQAPRKKAQGKTQQNRKLTDFYQ to GKQAPRKKAQGKTQQNRKLTDFYH, the protein stability index rises from 3.65 to 4.02.

Going from GKQAPRKKAQGKTQQNRKLTDFYY to GKQAPRKKAQGKTQQNRKLTDFYF, the protein stability index rises from 2.73 to 3.48.

Going from GKQAPRKKAQGKTQQNRKLTDFYR to GKQAPRKKAQGKTQQNRKLTDFYD, the protein stability index rises from 2.67 to 4.33.

Going from GKQAPRKKAQGKTQQNRKLTDFYW to GKQAPRKKAQGKTQQNRKLTDFYA, the protein stability index rises from 1.91 to 2.66.

Going from GKQAPRKKAQGKTQQNRKLTDFYK to GKQAPRKKAQGKTQQNRKLTDFYI, the protein stability index rises from 3.09 to 3.44.

Going from GKQAPRKKAQGKTQQNRKLTDFYG to GKQAPRKKAQGKTQQNRKLTDFYN, the protein stability index falls from 4.31 to 2.18.

Compared with GKQAPRKKAQGKTQQNRKLTDFYL, GKQAPRKKAQGKTQQNRKLTDFYS is lower in protein stability index: 3.56 for the first, 3.43 for the second.

First: GKQAPRKKAQGKTQQNRKLTDFYM
Second: GKQAPRKKAQGKTQQNRKLTDFYC
The protein stability index of the first is higher: 4.09 for the first, 3.62 for the second.

First: GKQAPRKKAQGKTQQNRKLFDFYP
Second: GKQAPRKKAQGKTQQNRKLMDFYP
The protein stability index of the first is lower: 3.06 for the first, 4.3 for the second.

Compared with GKQAPRKKAQGKTQQNRKLNDFYP, GKQAPRKKAQGKTQQNRKLCDFYP is lower in protein stability index: 3.61 for the first, 2.54 for the second.

Going from GKQAPRKKAQGKTQQNRKLIDFYP to GKQAPRKKAQGKTQQNRKLQDFYP, the protein stability index rises from 3.29 to 4.11.

First: GKQAPRKKAQGKTQQNRKLEDFYP
Second: GKQAPRKKAQGKTQQNRKLDDFYP
The protein stability index of the first is lower: 4.22 for the first, 4.5 for the second.

Going from GKQAPRKKAQGKTQQNRKLPDFYP to GKQAPRKKAQGKTQQNRKLKDFYP, the protein stability index falls from 4.41 to 3.54.

Variant GKQAPRKKAQGKTQQNRKLHDFYP has a protein stability index of 3.94.
